Measured values from US20240349752A1 (CLARA FOODS, published 2024).

Target: bovine trypsin (bovine, UniProt P00760 24-246)
Assay: cell-based or functional assay

bovine trypsin, sequence (P00760 24-246): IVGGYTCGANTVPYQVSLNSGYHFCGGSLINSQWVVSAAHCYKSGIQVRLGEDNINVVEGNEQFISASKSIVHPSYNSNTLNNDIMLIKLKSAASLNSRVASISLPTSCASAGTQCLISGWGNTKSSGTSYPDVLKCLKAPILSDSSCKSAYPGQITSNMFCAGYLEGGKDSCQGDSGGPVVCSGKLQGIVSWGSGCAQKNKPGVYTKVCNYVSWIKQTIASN

- Trypsin inhibition activity: 13700 TIU/g
B1: Native chicken Ovomucoid (other)
chain: AEVDCSRFPNATDKEGKDVLVCNKDLRPICGTDGVTYTNDCLLCAYSIEFGTNISKEHDGECKETVPMNCSSYANTTSEDGKVMVLCNRAFNPVCGTDGVTYDNECLLCAHKVEQGASVDKRHDGGCRKELAAVSVDCSEYPKPDCTAEDRPLCGSDNKTYGNKCNFCNAVVESNGTLTLSHFGKC
modifications: complex branched N-linked glycosylation (includes mannose)
